Measured values published in US20240034774A1 (Gilead, published 2024).

Columns and labels:
BSA = BSA (UniProt P02769 25-607); assay: single-point ELISA, BSA control
gp120 Bal = gp120 Bal (HIV (Bal)); assay: single-point ELISA at EC50 conc. of A-1
gp120 SHIV SF162 P3 = gp120 SHIV SF162 P3 (SHIV SF162 P3); assay: single-point ELISA at EC50 conc. of A-1
gp120 CAAN = gp120 CAAN (HIV (CAAN)); assay: single-point ELISA at EC50 conc. of A-1

B1: 1.32.33-1 (antibody, human IgG1, kappa)
heavy: QVQLVQSGAEVTKPGASVRVSCEASGYNIRDYFIHWWRQAPGQGLQWVGWINPKTGQPNNPRQFQGRVSLTRHASWDFDTFSFYMDLKALRSDDTAVYFCARQRTDYWDFDVWGSGTQVTVSSASTKGPSVFPLAPSSKSTSGGTAALGCLVKDYFPEPVTVSWNSGALTSGVHTFPAVLQSSGLYSLSSVVTVPSSSLGTQTYICNVNHKPSNTKVDKKVEPKSCDKTHTCPPCPAPELLAGPDVFLFPPKPKDTLMISRTPEVTCVVVDVSHEDPEVKFNWYVDGVEVHNAKTKPREEQYNSTYRVVSVLTVLHQDWLNGKEYKCKVSNKALPLPEEKTISKAKGQPREPQVYTLPPSREEMTKNQVSLTCLVKGFYPSDIAVEWESNGQPENNYKTTPPVLDSDGSFFLYSKLTVDKSRWQQGNVFSCSVLHEALHSHYTQKSLSLSPGK
light: DIQMTQSPSSLSASVGDTVTITCQANGYLNWYQQRRGKAPKLLIYDGSNLERGVPSRFSGRRWGQEYTLTISSLQPEDIATYFCQVYEFVVPGTNLDIKRTVAAPSVFIFPPSDEQLKSGTASVVCLLNNFYPREAKVQWKVDNALQSGNSQESVTEQDSKDSTYSLSSTLTLSKADYEKHKVYACEVTHQGLSSPVTKSFNRGEC
- ELISA A450 (BSA): 0.06 A450
- ELISA A450 (gp120 Bal): 0.93 A450
- ELISA A450 (gp120 SHIV SF162 P3): 0.71 A450
- ELISA A450 (gp120 CAAN): 0.68 A450

B2: 1.32.34-1 (antibody, human IgG1, kappa)
heavy: QVQLVQSGAEVTKPGASVRVSCEASGYNIRDYFIHWWRQAPGQGLQWVGWINPKTGQPNNPRQFQGRVSLTRHASWDFDTFSFYMDLKALRSDDTAVYFCARQRTDYWDFDVWGSGTQVTVSSASTKGPSVFPLAPSSKSTSGGTAALGCLVKDYFPEPVTVSWNSGALTSGVHTFPAVLQSSGLYSLSSVVTVPSSSLGTQTYICNVNHKPSNTKVDKKVEPKSCDKTHTCPPCPAPELLAGPDVFLFPPKPKDTLMISRTPEVTCVVVDVSHEDPEVKFNWYVDGVEVHNAKTKPREEQYNSTYRVVSVLTVLHQDWLNGKEYKCKVSNKALPLPEEKTISKAKGQPREPQVYTLPPSREEMTKNQVSLTCLVKGFYPSDIAVEWESNGQPENNYKTTPPVLDSDGSFFLYSKLTVDKSRWQQGNVFSCSVLHEALHSHYTQKSLSLSPGK
light: DIQMTQSPSSLSASVGDTVTITCQANGYLNWYQQRRGKAPKLLIYDGSNLERGVPSRFSGRRWGQEYTLTISSLQPEDIATYFCQVYEFVTPGTRLDIKRTVAAPSVFIFPPSDEQLKSGTASVVCLLNNFYPREAKVQWKVDNALQSGNSQESVTEQDSKDSTYSLSSTLTLSKADYEKHKVYACEVTHQGLSSPVTKSFNRGEC
- ELISA A450 (BSA): 0.06 A450
- ELISA A450 (gp120 Bal): 0.81 A450
- ELISA A450 (gp120 SHIV SF162 P3): 0.71 A450
- ELISA A450 (gp120 CAAN): 0.86 A450

B3: 1.33.1-1 (antibody, human IgG1, kappa)
heavy: QVQLVQSGAEVKKPGASVRVSCKASGYNIRDYFIHWWRQAPGQGLQWVGWINPKTGQPNNPRQFQGRVTLTRHASWDFDTFSFYMDLKALRSDDTATYFCARQRSDYWDFDVWGSGTQVTVSSASTKGPSVFPLAPSSKSTSGGTAALGCLVKDYFPEPVTVSWNSGALTSGVHTFPAVLQSSGLYSLSSVVTVPSSSLGTQTYICNVNHKPSNTKVDKKVEPKSCDKTHTCPPCPAPELLAGPDVFLFPPKPKDTLMISRTPEVTCVVVDVSHEDPEVKFNWYVDGVEVHNAKTKPREEQYNSTYRVVSVLTVLHQDWLNGKEYKCKVSNKALPLPEEKTISKAKGQPREPQVYTLPPSREEMTKNQVSLTCLVKGFYPSDIAVEWESNGQPENNYKTTPPVLDSDGSFFLYSKLTVDKSRWQQGNVFSCSVLHEALHSHYTQKSLSLSPGK
light: DIQMTQSPSSLSASVGDTVTITCQANGYLNWYQQRRGKAPKLLIYDGSKLERGVPSRFSGRRWGQEYNLTINNLQPEDIATYFCQVYEFVVPGTRLDLKRTVAAPSVFIFPPSDEQLKSGTASVVCLLNNFYPREAKVQWKVDNALQSGNSQESVTEQDSKDSTYSLSSTLTLSKADYEKHKVYACEVTHQGLSSPVTKSFNRGEC
- ELISA A450 (BSA): 0.06 A450
- ELISA A450 (gp120 Bal): 0.88 A450
- ELISA A450 (gp120 SHIV SF162 P3): 0.96 A450
- ELISA A450 (gp120 CAAN): 0.98 A450

B4: 1.33.31-1 (antibody, human IgG1, kappa)
heavy: QVQLVQSGAEVKKPGASVRVSCKASGYNIRDYFIHWWRQAPGQGLQWVGWINPKTGQPNNPRQFQGRVTLTRHASWDFDTFSFYMDLKALRSDDTATYFCARQRSDYWDFDVWGSGTQVTVSSASTKGPSVFPLAPSSKSTSGGTAALGCLVKDYFPEPVTVSWNSGALTSGVHTFPAVLQSSGLYSLSSVVTVPSSSLGTQTYICNVNHKPSNTKVDKKVEPKSCDKTHTCPPCPAPELLAGPDVFLFPPKPKDTLMISRTPEVTCVVVDVSHEDPEVKFNWYVDGVEVHNAKTKPREEQYNSTYRVVSVLTVLHQDWLNGKEYKCKVSNKALPLPEEKTISKAKGQPREPQVYTLPPSREEMTKNQVSLTCLVKGFYPSDIAVEWESNGQPENNYKTTPPVLDSDGSFFLYSKLTVDKSRWQQGNVFSCSVLHEALHSHYTQKSLSLSPGK
light: DIQMTQSPSSLSASVGDTVTITCQANGYLNWYQQRRGKAPKLLIYDGSKLERGVPSRFSGRRWGQEYTLTISSLQPEDIATYFCQVYEFVVPGTNLDLKRTVAAPSVFIFPPSDEQLKSGTASVVCLLNNFYPREAKVQWKVDNALQSGNSQESVTEQDSKDSTYSLSSTLTLSKADYEKHKVYACEVTHQGLSSPVTKSFNRGEC
- ELISA A450 (BSA): 0.07 A450
- ELISA A450 (gp120 Bal): 0.92 A450
- ELISA A450 (gp120 SHIV SF162 P3): 0.89 A450
- ELISA A450 (gp120 CAAN): 1.18 A450

B5: 1.33.32-1 (antibody, human IgG1, kappa)
heavy: QVQLVQSGAEVKKPGASVRVSCKASGYNIRDYFIHWWRQAPGQGLQWVGWINPKTGQPNNPRQFQGRVTLTRHASWDFDTFSFYMDLKALRSDDTATYFCARQRSDYWDFDVWGSGTQVTVSSASTKGPSVFPLAPSSKSTSGGTAALGCLVKDYFPEPVTVSWNSGALTSGVHTFPAVLQSSGLYSLSSVVTVPSSSLGTQTYICNVNHKPSNTKVDKKVEPKSCDKTHTCPPCPAPELLAGPDVFLFPPKPKDTLMISRTPEVTCVVVDVSHEDPEVKFNWYVDGVEVHNAKTKPREEQYNSTYRVVSVLTVLHQDWLNGKEYKCKVSNKALPLPEEKTISKAKGQPREPQVYTLPPSREEMTKNQVSLTCLVKGFYPSDIAVEWESNGQPENNYKTTPPVLDSDGSFFLYSKLTVDKSRWQQGNVFSCSVLHEALHSHYTQKSLSLSPGK
light: DIQMTQSPSSLSASVGDTVTITCQANGYLNWYQQRRGKAPKLLIYDGSKLERGVPSRFSGRRWGQEYTLTISSLQPEDIATYFCQVYEFVTPGTRLDLKRTVAAPSVFIFPPSDEQLKSGTASVVCLLNNFYPREAKVQWKVDNALQSGNSQESVTEQDSKDSTYSLSSTLTLSKADYEKHKVYACEVTHQGLSSPVTKSFNRGEC
- ELISA A450 (BSA): 0.07 A450
- ELISA A450 (gp120 Bal): 0.98 A450
- ELISA A450 (gp120 SHIV SF162 P3): 0.98 A450
- ELISA A450 (gp120 CAAN): 1.13 A450

B6: 1.33.33-1 (antibody, human IgG1, kappa)
heavy: QVQLVQSGAEVKKPGASVRVSCKASGYNIRDYFIHWWRQAPGQGLQWVGWINPKTGQPNNPRQFQGRVTLTRHASWDFDTFSFYMDLKALRSDDTATYFCARQRSDYWDFDVWGSGTQVTVSSASTKGPSVFPLAPSSKSTSGGTAALGCLVKDYFPEPVTVSWNSGALTSGVHTFPAVLQSSGLYSLSSVVTVPSSSLGTQTYICNVNHKPSNTKVDKKVEPKSCDKTHTCPPCPAPELLAGPDVFLFPPKPKDTLMISRTPEVTCVVVDVSHEDPEVKFNWYVDGVEVHNAKTKPREEQYNSTYRVVSVLTVLHQDWLNGKEYKCKVSNKALPLPEEKTISKAKGQPREPQVYTLPPSREEMTKNQVSLTCLVKGFYPSDIAVEWESNGQPENNYKTTPPVLDSDGSFFLYSKLTVDKSRWQQGNVFSCSVLHEALHSHYTQKSLSLSPGK
light: DIQMTQSPSSLSASVGDTVTITCQANGYLNWYQQRRGKAPKLLIYDGSNLERGVPSRFSGRRWGQEYTLTISSLQPEDIATYFCQVYEFVVPGTNLDIKRTVAAPSVFIFPPSDEQLKSGTASVVCLLNNFYPREAKVQWKVDNALQSGNSQESVTEQDSKDSTYSLSSTLTLSKADYEKHKVYACEVTHQGLSSPVTKSFNRGEC
- ELISA A450 (BSA): 0.07 A450
- ELISA A450 (gp120 Bal): 1.09 A450
- ELISA A450 (gp120 SHIV SF162 P3): 0.97 A450
- ELISA A450 (gp120 CAAN): 1.06 A450

B7: 1.33.34-1 (antibody, human IgG1, kappa)
heavy: QVQLVQSGAEVKKPGASVRVSCKASGYNIRDYFIHWWRQAPGQGLQWVGWINPKTGQPNNPRQFQGRVTLTRHASWDFDTFSFYMDLKALRSDDTATYFCARQRSDYWDFDVWGSGTQVTVSSASTKGPSVFPLAPSSKSTSGGTAALGCLVKDYFPEPVTVSWNSGALTSGVHTFPAVLQSSGLYSLSSVVTVPSSSLGTQTYICNVNHKPSNTKVDKKVEPKSCDKTHTCPPCPAPELLAGPDVFLFPPKPKDTLMISRTPEVTCVVVDVSHEDPEVKFNWYVDGVEVHNAKTKPREEQYNSTYRVVSVLTVLHQDWLNGKEYKCKVSNKALPLPEEKTISKAKGQPREPQVYTLPPSREEMTKNQVSLTCLVKGFYPSDIAVEWESNGQPENNYKTTPPVLDSDGSFFLYSKLTVDKSRWQQGNVFSCSVLHEALHSHYTQKSLSLSPGK
light: DIQMTQSPSSLSASVGDTVTITCQANGYLNWYQQRRGKAPKLLIYDGSNLERGVPSRFSGRRWGQEYTLTISSLQPEDIATYFCQVYEFVTPGTRLDIKRTVAAPSVFIFPPSDEQLKSGTASVVCLLNNFYPREAKVQWKVDNALQSGNSQESVTEQDSKDSTYSLSSTLTLSKADYEKHKVYACEVTHQGLSSPVTKSFNRGEC
- ELISA A450 (BSA): 0.06 A450
- ELISA A450 (gp120 Bal): 0.95 A450
- ELISA A450 (gp120 SHIV SF162 P3): 0.82 A450
- ELISA A450 (gp120 CAAN): 0.95 A450

B8: 1.34.1-1 (antibody, human IgG1, kappa)
heavy: QVQLVQSGAEVKKPGASVRVSCKASGYNIRDYFIHWWRQAPGQGLQWVGWINPKTGQPNNPRQFQGRVTLTRHASWDFDTFSFYMDLKALRSDDTAVYFCARQRTDYWDFDVWGSGTQVTVSSASTKGPSVFPLAPSSKSTSGGTAALGCLVKDYFPEPVTVSWNSGALTSGVHTFPAVLQSSGLYSLSSVVTVPSSSLGTQTYICNVNHKPSNTKVDKKVEPKSCDKTHTCPPCPAPELLAGPDVFLFPPKPKDTLMISRTPEVTCVVVDVSHEDPEVKFNWYVDGVEVHNAKTKPREEQYNSTYRVVSVLTVLHQDWLNGKEYKCKVSNKALPLPEEKTISKAKGQPREPQVYTLPPSREEMTKNQVSLTCLVKGFYPSDIAVEWESNGQPENNYKTTPPVLDSDGSFFLYSKLTVDKSRWQQGNVFSCSVLHEALHSHYTQKSLSLSPGK
light: DIQMTQSPSSLSASVGDTVTITCQANGYLNWYQQRRGKAPKLLIYDGSKLERGVPSRFSGRRWGQEYNLTINNLQPEDIATYFCQVYEFVVPGTRLDLKRTVAAPSVFIFPPSDEQLKSGTASVVCLLNNFYPREAKVQWKVDNALQSGNSQESVTEQDSKDSTYSLSSTLTLSKADYEKHKVYACEVTHQGLSSPVTKSFNRGEC
- ELISA A450 (BSA): 0.07 A450
- ELISA A450 (gp120 Bal): 0.83 A450
- ELISA A450 (gp120 SHIV SF162 P3): 0.79 A450
- ELISA A450 (gp120 CAAN): 0.9 A450
